Here are results for 4 molecules from patent publication US20220356245A1 (FORTY SEVEN, published 2022).

Numbering of substitutions follows the chain as printed. In names and notes the source's numbering stands. Where two headings read alike, the source gives them in different places.

Assay [1] addresses T1, human CD47 (hCD47) expressed on cells (human, UniProt Q08722 19-323).
T1 construct: Transfected CHO cells or endogenous CD47 of human cells; also called CHO-hCD47; CD47 on Raji cells
The assay can be described thus: flow cytometry on Raji cells, hIgG4 format: inhibition of hSIRPα binding to hCD47. Background: Flow cytometry measures light scatter and fluorescence of single cells or particles in a stream.

The target of assay [2] is T2, hu-sCD47-6His; extracellular domain of human CD47 antigen with 6His-tag (human).
T2 construct: also called hCD47-his; soluble hCD47
As to the kind of experiment: SPR Biacore. Background: SPR reads the build-up and loss of mass on a sensor chip optically.
Description: (§1) An anti-human or anti-mouse IgG (Fc) was first immobilized on the surface of Serie S Sensor Chips CM5 using the human or mouse antibody capture and amine coupling kits, following the manufacturer's instructions (GE Healthcare). […] The mouse, chimerized or humanized antibodies to be tested were then captured onto the appropriate anti-mouse or anti-human IgG surface in all flow cells except flow cell 1 used as control, at concentration and contact time adjusted so that ˜300 RU were captured on the surface. Binding kinetics were studied by passing increasing concentrations of hCD47-his in a series of five 10 minute injections through all flow cells at a rate of 30 μL/min. […] Following the final injection, buffer was passed across each flow cell for 60 minutes (mouse) or 30 minutes (human) to monitor the dissociation of bound antigen. Regeneration of the binding surface was carried out at the end of the cycle by flowing 3 M MgCl₂ for 60 s at 20 μL/min followed by 10 mM glycine-HCl, pH 1.7 for 180 s at 10 μl/min (for human) or by flowing 10 mM glycine-HCl, ph 1.7 for 360 s at 10 μl/min (for mouse). A second cycle with the same antibodies but no antigen was run as a control. Kinetics binding constants were estimated by non-linear fitting of the sensogram data to the 1:1 binding model provided by the Biacore T200 evaluation software.

Assay [3] concerns the target T1, human CD47 (hCD47) expressed on cells. As to the kind of experiment: flow cytometry on Raji cells, hIgG4 format, delta MFI.
For assay [4] the target is unchanged. The assay can be described thus: flow cytometry, Raji cells, competition with hSIRPα.
The target is the same in assay [5]. The assay can be described thus: flow cytometry, Raji cells.
The target of assay [6] is T2, hu-sCD47-6His; extracellular domain of …. The assay can be described thus: SPR Biacore; head read as x 10^-4.
Description: as §1
Assay [7] shares this target. As to the kind of experiment: SPR Biacore. The source holds these as a separate data set.
Description: as §1
The target of assay [8] is T1, human CD47 (hCD47) expressed on cells. As to the kind of experiment: flow cytometry, Raji cells, competition with hSIRPα. The source holds these as a separate data set.
The target is the same in assay [9]. As to the kind of experiment: flow cytometry, Raji cells. This is another data set of the same source.
For assay [10], the target named is T3, mouse CD47 (mCD47) expressed on CHO cells (mouse, UniProt Q61735 19-303).
T3 construct: whole, on cells; also called CHO-mCD47
T3 sequence (looked up): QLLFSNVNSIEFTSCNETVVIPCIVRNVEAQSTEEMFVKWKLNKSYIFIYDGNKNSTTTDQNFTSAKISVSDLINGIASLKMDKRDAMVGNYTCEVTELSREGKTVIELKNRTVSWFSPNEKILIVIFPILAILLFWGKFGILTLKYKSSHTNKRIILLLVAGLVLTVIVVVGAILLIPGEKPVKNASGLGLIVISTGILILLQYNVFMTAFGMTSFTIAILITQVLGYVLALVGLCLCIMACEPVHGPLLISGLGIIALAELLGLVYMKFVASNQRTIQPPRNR
As to the kind of experiment: flow cytometry, CHO-mCD47 cells (not shown).

For assay [11], the target named is T1, human CD47 (hCD47) expressed on cells. The assay can be described thus: flow cytometry on Raji cells, hIgG4 format, delta MFI. The source holds these as a separate data set.
For assay [12] the target is unchanged. As to the kind of experiment: flow cytometry on Raji cells, hIgG4 format: inhibition of hSIRPα binding to hCD47. The source holds these as a separate data set.

B1: h20-H4-L4Y (candidate 20.29), hIgG4-S228P (antibody, V domains shown)
VH: QVQLVQSGAEVKKPGSSVKVSCKASGYSFTDYYINWVRQAPGQGLEWMGRIYPGIGNTYYNKKFKGRVTITADKSTSTAYMELSSLRSEDTAVYYCARGHYGRGMDYWGQGTTVTVSS
VL: DIVMTQSPDSLAVSLGERATINCKSSQSLLNSIDQKNYLAWYQQKPGQPPKLLIYYASTKESGVPDRFSGSGSGTDFTLTISSLQAEDVAVYFCQQHYSTPWTFGGGAKVEIKR
notes: also called H20-VH4-VL4,Y
As for B1, in assay [1], the “IC50 (read off the curve)” value was around 0.4 µg/mL. In [2], binding was characterised by a dissociation constant (Kd) of 2.61 nM; the koff – broadly, the rate constant with which the complex falls apart – stood at 0.000761 s⁻¹; the kon (commonly the rate constant with which the complex forms) was found to be 306000 M⁻¹ s⁻¹. In addition, the concentration for a half-maximal effect (EC50 (read off the curve)) (commonly the concentration needed to bring the measured effect to its halfway point) in assay [3] is around 0.1 µg/mL. Further, the IC50 (usually the concentration that gives 50% inhibition) in [4] came to 0.181 µg/mL. Besides, the EC50 (in general, the midpoint of the concentration-response curve) in assay [5] was found to be 0.147 µg/mL.

B2: h20-VH4-VL4 (candidate 20.19) (antibody, human IgG4 S228P, kappa, V domains shown)
VH: B1 VH
VL: B1 VL with Y56F
notes: hIgG4-S228P/kappa; also called h20-H4-L4
As to B2, the koff in assay [6] was found to be 0.000685 s⁻¹. In addition, the “IC50 (read off the curve)” value in [1] was around 0.3 µg/mL. In assay [7], the Kd (commonly the equilibrium constant for the complex coming apart) amounted to 4.15 nM and the on-rate constant (kon) was 179000 M⁻¹ s⁻¹. The “EC50 (read off the curve)” value in assay [3] was around 0.1 µg/mL. Further, the IC50 in [8] is 0.192 µg/mL. In assay [9], this molecule had an EC50 of 0.139 µg/mL. In [10], the binding result was “no binding”.

B3: h20-VH4-VL5 (candidate 20.20) (antibody, human IgG4 S228P, kappa, V domains shown)
VH: B1 VH
VL: B1 VL with Y56F, S83G, A108T, K113R
notes: hIgG4-S228P/kappa; also called h20-H4-L5
Turning to B3, the koff in [6] is 0.000624 s⁻¹. The “EC50 (read off the curve)” value in assay [11] is around 0.1 µg/mL. In [7], this molecule had a Kd of 3.5 nM and a kon of 192000 M⁻¹ s⁻¹. Further, the “IC50 (read off the curve)” value in assay [12] is around 0.3 µg/mL. The molecule further came in with an IC50 in assay [8] of 0.095 µg/mL. In assay [9], the midpoint of the response, the EC50, lay at 0.136 µg/mL. In assay [10], the binding result is recorded as “no binding”.

B4: h20-H4-L5Y (candidate 20.30), hIgG4-S228P (antibody, V domains shown)
VH: B1 VH
VL: B1 VL with S83G, A108T, K113R
notes: also called H20-VH4-VL5,Y
As for B4, the “EC50 (read off the curve)” value in assay [11] was around 0.1 µg/mL. Further, in [2], the Kd stood at 2.82 nM, the dissociation rate constant (koff) worked out at 0.000693 s⁻¹ and the kon was 254000 M⁻¹ s⁻¹. Further, the “IC50 (read off the curve)” value in [12] is around 0.3 µg/mL. This molecule had an IC50 in assay [4] of 0.149 µg/mL. The molecule further registered an EC50 in assay [5] of 0.105 µg/mL.
